The target in experiment [1] is T1, ErbB3 in MALME-3M cells (Homo sapiens, UniProt P21860).
T1 construct: ErbB3 expressed on MALME-3M melanoma cells; host or cells: MALME-3M melanoma cells
Put plainly: total ErbB3 levels in MALME-3M cells in vitro by ELISA. The conditions noted are these: 24 hours. The format is cell-based. As to the method:
MALME-3M cells are seeded in 96 well tissue culture plates and grown in RPMI-1640 media supplemented with antibiotics, 2 mM L-glutamine and 10% fetal bovine serum (FBS) for 24 hours at 37° C. and 5% carbon dioxide. Media are then switched to the same medium without FBS and with and without the antibody at concentrations of 1 uM, 250 nM, 63 nM, 16 nM, 4.0 nM, 1.0 nM, 240 pM, 61 pM and 15 pM. Medium containing no FBS or antibody is used as control. Cells are grown for 24 hours at 37° C. and 5% carbon dioxide, washed with cold PBS, then harvested with mammalian protein extract (MPER) lysis buffer (Pierce, 78505) to which 150 mM NaCl, 5 mM sodium pyrophosphate, 10 uM bpV (phen), 50 uM phenylarsine, 1 mM sodium orthovanadate, and protease inhibitor cocktail (Sigma, P2714) is added. Cell lysates are diluted two-fold with 4% bovine serum albumin in PBST (0.1% tween-20), then analyzed by ELISA with mouse anti-human ErbB3 capture antibody and biotinylated mouse anti-human ErbB3 secondary detection antibody. Signal is generated with streptavidin conjugated to horseradish-peroxidase reacted with SUPERSIGNAL ELISA Pico chemiluminescent substrate (Pierce, 37070). ELISAs are quantitated using a luminometer.
In general terms: ELISA stands for enzyme-linked immunosorbent assay.

The subject of experiment [2] is HGF induced ErbB3 phosphorylation in AdrR cells. Put plainly: HGF induced ErbB3 phosphorylation in AdrR cells. In kind it is cell-based, human. As to the method: Various ligands are tested for inducement of ErBb3 phosphorylation. At least three ligands, HRG, BTC, and HGF, are able to stimulate ErbB3 induced phosphorylation in AdrR cells, while EGF can not. […] Further, as known in the art (see, e.g., Wallenius et al. (2000) Am J Pathol. 156 (3):821-9), enhanced HGF signaling has been reported in various epithelial and non-epithelial tumors.
c-MET-ErbB3 interactions also occur in AdrR cells carrying the wild type EGFR and is not dependent on amplified c-MET.

Experiment [3] addresses BSA (Bos taurus, UniProt P02769). As to the kind of experiment: binding specificity ELISA. The conditions noted are these: IgG2 isotype of Ab #6. Also on record: species or system bovine. As to the method: 96-well NUNC MAXISORB plates are coated by overnight incubation at room temperature with 50 μl/well of 5 μg/ml of individual proteins. The proteins are recombinant human EGFR ectodomain, BSA, recombinant human ErbB3 ectodomain and TGF-α. The next morning, plates are washed 3 times with […] of PBST (0.05% Tween-20) in the BIOTEK plate washer. The wells are blocked for 1 hr at room temperature with 2% BSA in PBS and washed again as before. […] All samples are run in duplicate and incubated for 2 hrs at 4° C. on a plate shaker. The plates are washed again as before. 50 μl of human IgG-Fc detection antibody (HRP conjugated, Bethyl Laboratories, Inc; 1:75000 dilution in 2% BSA, PBST) is added and the plates are incubated for 1 hr at room temperature. The plates are washed again as before. 50 μL of SUPERSIGNAL ELISA Pico substrate is added and the plate is read on the FUSION plate reader (Packard/Perkin Elmer). The data is analyzed using the EXCEL program. Duplicate samples are averaged and the error bars represent the standard deviation between the two replicates.

Experiment [4] has as its target T2, ErbB3 (Homo sapiens, UniProt P21860). Put plainly: Surface Plasmon Resonance Assay. In kind it is binding.
Experiment [5] addresses T3, AdrR cells expressing ErbB3 receptor (Homo sapiens, UniProt P21860).
T3 construct: host or cells: AdrR (NCI/AdrR) ovarian cancer cells
As to the kind of experiment: HRG and BTC binding to AdrR cells by FACS. In kind it is cell-based. On the technique in general: A flow cytometer gives signals particle by particle.

In experiment [6] the test system is Du145 (prostate) xenograft. As to the kind of experiment: xenograft tumor growth in nude mice. In kind it is in vivo, mouse.
Experiment [7] concerns the target T4, ErbB3 receptors on MALME-3M cells (Homo sapiens, UniProt P21860).
T4 construct: ErbB3 expressed on MALME-3M melanoma cells; host or cells: MALME-3M melanoma cells
Put plainly: downregulation of ErbB3 receptors on MALME-3M cells by FACS. In kind it is cell-based. The conditions noted are these: 100 nM. On the procedure: MALME-3M cells are trypsinized from a 15 cm dish and washed once with RPMI+10% FBS. Cell pellets are resuspended at a density of 1×10^6 cells per ml. Two aliquots of 2×10^5 cells are added to separate wells in a 12-well tissue culture plate and each resuspended in a final volume of 800 ul RPMI+10% FBS.
Cells are washed twice with 1 ml BD stain buffer and incubated with 100 ul of a 1:500 dilution of Alexa 647-labeled goat anti-human Alexa 647 for 45 minutes on ice. Cells are then washed and resuspended in 300 ul BD stain buffer+0.5 ug/ml propidium iodide. Analysis of 10,000 cells is done in a FACSCALIBUR flow cytometer using the FL4 channel.

The target of experiment [8] is T2, ErbB3. As to the kind of experiment: Kinetic Exclusion Assay (KinExA). In kind it is binding. For orientation: In KinExA the mixture passes briefly over coated beads that capture the unbound partner.
Experiment [9] deals with renal (ACHN) xenograft. Put plainly: xenograft tumor growth in nude mice. The format is in vivo, mouse. The conditions noted are these: 600 ug Q3d versus 300 ug.
For experiment [10], the system named is three different xenografts. As to the kind of experiment: VEGF secretion in xenografts in vivo. The text has this: Inhibition of VEGF correlates with inhibition of ErbB3 phosphorylation (FIG. 24C). […] Inhibition of VEGF secretion is also known in the art to correlate with inhibition of tumor induced angiogenesis, a facilitator of tumor growth.

Sequence of BSA (P02769 25-607): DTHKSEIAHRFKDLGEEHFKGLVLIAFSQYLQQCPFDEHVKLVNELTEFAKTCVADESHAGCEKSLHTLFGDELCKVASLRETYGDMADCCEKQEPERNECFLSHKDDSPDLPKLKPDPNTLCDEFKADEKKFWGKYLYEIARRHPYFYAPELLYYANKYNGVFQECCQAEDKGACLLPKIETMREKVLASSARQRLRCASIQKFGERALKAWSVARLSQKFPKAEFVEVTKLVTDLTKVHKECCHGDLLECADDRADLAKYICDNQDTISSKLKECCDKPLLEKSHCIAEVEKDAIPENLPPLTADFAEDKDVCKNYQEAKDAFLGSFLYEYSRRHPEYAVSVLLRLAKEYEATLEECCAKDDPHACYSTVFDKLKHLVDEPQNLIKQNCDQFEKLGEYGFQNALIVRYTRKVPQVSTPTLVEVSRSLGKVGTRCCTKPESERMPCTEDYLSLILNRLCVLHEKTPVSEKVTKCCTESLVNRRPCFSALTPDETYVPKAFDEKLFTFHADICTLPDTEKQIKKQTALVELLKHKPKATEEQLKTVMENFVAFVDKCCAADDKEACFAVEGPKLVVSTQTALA

B1: Ab #6: human anti-ErbB3 antibody from Fab-phage library, CDRs SEQ ID NOs:7-12; used as IgG1 and IgG2 isotypes; in phase I trials as MM-121 (antibody, V domains shown)
VH: EVQLLESGGGLVQPGGSLRLSCAASGFTFSHYVMAWVRQAPGKGLEWVSSISSSGGWTLYADSVKGRFTISRDNSKNTLYLQMNSLRAEDTAVYYCTRGLKMATIFDYWGQGTLVTVSS
VL: QSALTQPASVSGSPGQSITISCTGTSSDVGSYNVVSWYQQHPGKAPKLIIYEVSQRPSGVSNRFSGSKSGNTASLTISGLQTEDEADYYCCSYAGSSIFVIFGGGTKVTVL
On to B1, for which the “decrease of total ErbB3 levels” value in experiment [1] is “about 46.9%”. Further, in experiment [2] (AdrR cells), the “inhibition of HGF induced ErbB3 phosphorylation” value is given as “inhibits HGF induced ErbB3 phosphorylation”. The molecule also had an IC50 in experiment [2] (HGF induced ErbB3 phosphorylation in AdrR cells (FIG. 28)) of 0.244 nM. In experiment [3], the “binding in ELISA” value is reported as “did not show any appreciable binding”. The “competition with HRG for binding to ErbB3” value in experiment [4] is given as “competes with HRG for binding to ErbB3”. For the same molecule, the “competition with BTC for binding to AdrR cells” value in [5] was “competes with HRG but not BTC”. The “competition with HRG for binding to AdrR cells” value in experiment [5] is listed as “competes with HRG”. Further, the “inhibition of tumor growth” value in [6] (300 ug every three days (Q3d), p<0.05) is “significant inhibition of tumor growth”; in experiment [6] (600 ug Q3d versus 300 ug), “further elevated”; in experiment [9], “further elevated”. For the same molecule, the “downregulation of ErbB3 on MALME-3M cells” value is reported as “about 62%” in experiment [7] (IgG1 isotype) and “about 66%” in [7] (IgG2 isotype). In experiment [8], this molecule registered a dissociation rate of 0.00011 s⁻¹. The “inhibition of VEGF secretion in vivo” value in [10] is reported as “inhibiting VEGF secretion in three different xenografts, the highest being in COLO-357 xenograft”.

Usually IC50 stands for the point on the concentration scale where inhibition reaches its midpoint. Lower therefore signals greater potency in that assay.

The values are drawn from patent publication US8691225B2, “Antibodies against the ectodomain of ErbB3 and uses thereof” (Merrimack Pharmaceuticals, Inc., priority 2007, dated 2014).
